Biological target: Strep-Tag II peptide WSHPQFEK (SEQ ID NO:9)
Test: ELISA assay after Friguet et al 1985

- Kd: 0.14 nM
B1: monoclonal antibody C23.21 (antibody, V domains shown)
VH: EVQLEQSGPELVKPGASVKMSCKASGYTFTNYYMKWVKQSHGKSLEWIGDLNPNNGDTFYNQKFKGKATLTVDKSSNTAYMQLNSLTSEDSAVYYCARTGRYEENAMDYWGQGTSVTVSS
VL: ELVMTQSPASLAVSLGQRATISCRASESVDSYGKSFMHWYQLKPGQPPKLLIYRASNLESGVPARFSGSGSRTDFTLTIDPVEADDAATYYCQQNNEDPWTFGGGTKLEIK
